Assay results from ChEMBL document CHEMBL2074219, “Cellular uptake mechanism of amino acid ester prodrugs in Caco-2/hPEPT1 cells overexpressing a human peptide transporter” (Pharm Res, 1998).

What was measured:
[1] = substrate: CN(CC(=O)O)C(=O)CN; assay: TP_TRANSPORTER: uptake in PEPT1-overexpressing Caco-2 cells; format: functional, cell-based
[2] = substrate: CN(CC(=O)O)C(=O)CN; assay: TP_TRANSPORTER: uptake in Caco-2 cells; format: functional, cell-based

B1: Solute carrier family 15 member 1 (Homo sapiens), P46059 (protein)
chain: MGMSKSHSFFGYPLSIFFIVVNEFCERFSYYGMRAILILYFTNFISWDDNLSTAIYHTFVALCYLTPILGALIADSWLGKFKTIVSLSIVYTIGQAVTSVSSINDLTDHNHDGTPDSLPVHVVLSLIGLALIALGTGGIKPCVSAFGGDQFEEGQEKQRNRFFSIFYLAINAGSLLSTIITPMLRVQQCGIHSKQACYPLAFGVPAALMAVALIVFVLGSGMYKKFKPQGNIMGKVAKCIGFAIKNRFRHRSKAFPKREHWLDWAKEKYDERLISQIKMVTRVMFLYIPLPMFWALFDQQGSRWTLQATTMSGKIGALEIQPDQMQTVNAILIVIMVPIFDAVLYPLIAKCGFNFTSLKKMAVGMVLASMAFVVAAIVQVEIDKTLPVFPKGNEVQIKVLNIGNNTMNISLPGEMVTLGPMSQTNAFMTFDVNKLTRINISSPGSPVTAVTDDFKQGQRHTLLVWAPNHYQVVKDGLNQKPEKGENGIRFVNTFNELITITMSGKVYANISSYNASTYQFFPSGIKGFTISSTEIPPQCQPNFNTFYLEFGSAYTYIVQRKNDSCPEVKVFEDISANTVNMALQIPQYFLLTCGEVVFSVTGLEFSYSQAPSNMKSVLQAGWLLTVAVGNIIVLIVAGAGQFSKQWAEYILFAALLLVVCVIFAIMARFYTYINPAEIEAQFDEDEKKNRLEKSNPYFMSGANSQKQM
- Km [1]: 2100 µM
- Km [2]: 700 µM
